This note sets out measurements from the supplement of paper PMC5998384.

For data set [1], the system named is HeLa Kyoto. Kind of data set: melting temperature (median over replicates), in situ; higher = more thermally stable.
In data set [2] the test system is HeLa Kyoto. Description: solubility change mitosis vs G1/S (difference of NP-40 vs SDS log2 ratios) (log2 ratio difference); higher = more soluble in mitosis.
Data set [3] deals with HeLa Kyoto. Kind of data set: solubility in G1/S (NP-40 vs SDS abundance) (log2 ratio); higher = more soluble. Conditions: cell cycle stage: G1/S.
In data set [4] the test system is HeLa Kyoto. Description: thermal stability score vs G1/S (z-score of summed log2 fold changes over temperatures); higher = more thermally stable than in G1/S.
The mark [5] stands for this setting: cell cycle stage: early G1 (4.5 h after nocodazole release).
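Throughout, for melting temperature (median over replicates), in situ: HeLa Kyoto cells synchronized by double thymidine or nocodazole block, proteins quantified by TMT10plex mass spectrometry, three independent biological replicates.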
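Throughout, for solubility change mitosis vs G1/S (difference of NP-40 vs SDS log2 ratios): synchronized HeLa Kyoto cells (double thymidine block for G1/S, nocodazole release for mitosis), protein amounts in NP-40 versus SDS lysates quantified by mass spectrometry, three biological replicates.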
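Throughout, for solubility in G1/S (NP-40 vs SDS abundance): HeLa Kyoto cells arrested at G1/S by double thymidine block, proteins quantified by TMT10plex mass spectrometry in mild NP-40 versus SDS extracts, three biological replicates.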
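Throughout, for thermal stability score vs G1/S (z-score of summed log2 fold changes over temperatures): synchronized HeLa Kyoto cells, proteins quantified by TMT10plex mass spectrometry, three biological replicates, mitosis taken 0.5 h after nocodazole release, G1/S directly after double thymidine block.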

With “MAASAAAASAAAASAASGSPGPGEGSAGGEKRSTAPSAAASASASAAASSPAGGGAEALELLEHCGVCRERLRPEREPRLLPCLHSACSACLGPAAPAAANSSGDGGAAGDGTVVDCPVCKQQCFSKDIVENYFMRDSGSKAATDAQDANQCCTSCEDNAPATSYCVECSEPLCETCVEAHQRVKYTKDHTVRSTGPAKSRDGERTVYCNVHKHEPLVLFCESCDTLTCRDCQLNAHKDHQYQFLEDAVRNQRKLLASLVKRLGDKHATLQKSTKEVRSSIRQVSDVQKRVQVDVKMAILQIMKELNKRGRVLVNDAQKVTEGQQERLERQHWTMTKIQKHQEHILRFASWALESDNNTALLLSKKLIYFQLHRALKMIVDPVEPHGEMKFQWDLNAWTKSAEAFGKIVAERPGTNSTGPAPMAPPRAPGPLSKQGSGSSQPMEVQEGYGFGSGDDPYSSAEPHVSGVKRSRSGEGEVSGLMRKVPRVSLERLDLDLTADSQPPVFKVFPGSTTEDYNLIVIERGAAAAATGQPGTAPAGTPGAPPLAGMAIVKEEETEAAIGAPPTATEGPETKPVLMALAEGPGAEGPRLASPSGSTSSGLEVVAPEGTSAPGGGPGTLDDSATICRVCQKPGDLVMCNQCEFCFHLDCHLPALQDVPGEEWSCSLCHVLPDLKEEDGSLSLDGADSTGVVAKLSPANQRKCERVLLALFCHEPCRPLHQLATDSTFSLDQPGGTLDLTLIRARLQEKLSPPYSSPQEFAQDVGRMFKQFNKLTEDKADVQSIIGLQRFFETRMNEAFGDTKFSAVLVEPPPMSLPGAGLSSQELSGGPGDGP [TRIM28]”, the melting temperature in the data set with HeLa Kyoto [1] (cell cycle stage: G1/S) was found to be 48.2 °C; in the data set with HeLa Kyoto [1] (cell cycle stage: mitosis) it was 49.2 °C. Moreover, in the data set with HeLa Kyoto [2], the “solubility change mitosis (log2)” value is -0.0696. Moreover, the “solubility in G1/S (log2)” value in the data set on HeLa Kyoto [3] came out at 0.119. Further, the thermal stability score amounted to 1.33 in the data set with HeLa Kyoto [4] (setting [5]) and 6.59 in the data set with HeLa Kyoto [4] (cell cycle stage: mitosis).

“MAASAGAGAVIAAPDSRRWLWSVLAAALGLLTAGVSALEVYTPKEIFVANGTQGKLTCKFKSTSTTGGLTSVSWSFQPEGADTTVSFFHYSQGQVYLGNYPPFKDRISWAGDLDKKDASINIENMQFIHNGTYICDVKNPPDIVVQPGHIRLYVVEKENLPVFPVWVVVGIVTAVVLGLTLLISMILAVLYRRKNSKRDYTGCSTSESLSPVKQAPRKSPSDTEGLVKSLPSGSHQGPVIYAQLDHSGGHHSDKINKSESVVYADIRKN [MPZL1]”: the melting temperature in the data set with HeLa Kyoto [1] (cell cycle stage: G1/S) amounted to 57.8 °C; with HeLa Kyoto [1] (cell cycle stage: mitosis) it was 58.1 °C. In addition, the “solubility change mitosis (log2)” value in the data set with HeLa Kyoto [2] is -0.289. The “solubility in G1/S (log2)” value with HeLa Kyoto [3] was 0.534. Also, the thermal stability score with HeLa Kyoto [4] (setting [5]) is -1.73; with HeLa Kyoto [4] (cell cycle stage: mitosis), -3.55.

Turning to “MAASAKRKQEEKHLKMLRDMTGLPHNRKCFDCDQRGPTYVNMTVGSFVCTSCSGSLRGLNPPHRVKSISMTTFTQQEIEFLQKHGNEVCKQIWLGLFDDRSSAIPDFRDPQKVKEFLQEKYEKKRWYVPPEQAKVVASVHASISGSSASSTSSTPEVKPLKSLLGDSAPTLHLNKGTPSQSPVVGRSQGQQQEKKQFDLLSDLGSDIFAAPAPQSTATANFANFAHFNSHAAQNSANADFANFDAFGQSSGSSNFGGFPTASHSPFQPQTTGGSAASVNANFAHFDNFPKSSSADFGTFNTSQSHQTASAVSKVSTNKAGLQTADKYAALANLDNIFSAGQGGDQGSGFGTTGKAPVGSVVSVPSQSSASSDKYAALAELDSVFSSAATSSNAYTSTSNASSNVFGTVPVVASAQTQPASSSVPAPFGATPSTNPFVAAAGPSVASSTNPFQTNARGATAATFGTASMSMPTGFGTPAPYSLPTSFSGSFQQPAFPAQAAFPQQTAFSQQPNGAGFAAFGQTKPVVTPFGQVAAAGVSSNPFMTGAPTGQFPTGSSSTNPFL [AGFG1]”, the melting temperature in the data set with HeLa Kyoto [1] (cell cycle stage: G1/S) was 50.9 °C; in the data set on HeLa Kyoto [1] (cell cycle stage: mitosis), 52.1 °C. For the same sequence, the “solubility change mitosis (log2)” value in the data set with HeLa Kyoto [2] was -0.0484. Further, the “solubility in G1/S (log2)” value in the data set on HeLa Kyoto [3] worked out at 0.0305. Further, the results for the thermal stability score in the data set with HeLa Kyoto [4] (setting [5]) and with HeLa Kyoto [4] (cell cycle stage: mitosis) were 0.14 and -0.191, respectively.

Turning to “MAASCLVLLALCLLLPLLLLGGWKRWRRGRAARHVVAVVLGDVGRSPRMQYHALSLAMHGFSVTLLGFCNSKPHDELLQNNRIQIVGLTELQSLAVGPRVFQYGVKVVLQAMYLLWKLMWREPGAYIFLQNPPGLPSIAVCWFVGCLCGSKLVIDWHNYGYSIMGLVHGPNHPLVLLAKWYEKFFGRLSHLNLCVTNAMREDLADNWHIRAVTVYDKPASFFKETPLDLQHRLFMKLGSMHSPFRARSEPEDPVTERSAFTERDAGSGLVTRLRERPALLVSSTSWTEDEDFSILLAALEKFEQLTLDGHNLPSLVCVITGKGPLREYYSRLIHQKHFQHIQVCTPWLEAEDYPLLLGSADLGVCLHTSSSGLDLPMKVVDMFGCCLPVCAVNFKCLHELVKHEENGLVFEDSEELAAQLQMLFSNFPDPAGKLNQFRKNLRESQQLRWDESWVQTVLPLVMDT [ALG1]”, the figures for the melting temperature in the data set with HeLa Kyoto [1] (cell cycle stage: G1/S) and in the data set on HeLa Kyoto [1] (cell cycle stage: mitosis) were 52.4 °C and 52.6 °C, respectively. Moreover, the “solubility change mitosis (log2)” value in the data set with HeLa Kyoto [2] was -0.125. Moreover, in the data set with HeLa Kyoto [3], the “solubility in G1/S (log2)” value is -0.369. The thermal stability score in the data set with HeLa Kyoto [4] (setting [5]) was 0.156; in the data set with HeLa Kyoto [4] (cell cycle stage: mitosis) it was -0.276.

Turning to “MAASGESGTSGGGGSTEEAFMTFYSEVKQIEKRDSVLTSKNQIERLTRPGSSYFNLNPFEVLQIDPEVTDEEIKKRFRQLSILVHPDKNQDDADRAQKAFEAVDKAYKLLLDQEQKKRALDVIQAGKEYVEHTVKERKKQLKKEGKPTIVEEDDPELFKQAVYKQTMKLFAELEIKRKEREAKEMHERKRQREEEIEAQEKAKREREWQKNFEESRDGRVDSWRNFQANTKGKKEKKNRTFLRPPKVKMEQRE [DNAJC8]”, the melting temperature in the data set with HeLa Kyoto [1] (cell cycle stage: G1/S) amounted to 50.1 °C; in the data set on HeLa Kyoto [1] (cell cycle stage: mitosis), 51.5 °C. Moreover, the “solubility change mitosis (log2)” value with HeLa Kyoto [2] stood at 0.145. Besides, the “solubility in G1/S (log2)” value in the data set with HeLa Kyoto [3] amounted to 0.748. Also, the thermal stability score is 1.39 in the data set on HeLa Kyoto [4] (setting [5]) and 0.712 with HeLa Kyoto [4] (cell cycle stage: mitosis).

On to “MAASLRLLGAASGLRYWSRRLRPAAGSFAAVCSRSVASKTPVGFIGLGNMGNPMAKNLMKHGYPLIIYDVFPDACKEFQDAGEQVVSSPADVAEKADRIITMLPTSINAIEAYSGANGILKKVKKGSLLIDSSTIDPAVSKELAKEVEKMGAVFMDAPVSGGVGAARSGNLTFMVGGVEDEFAAAQELLGCMGSNVVYCGAVGTGQAAKICNNMLLAISMIGTAEAMNLGIRLGLDPKLLAKILNMSSGRCWSSDTYNPVPGVMDGVPSANNYQGGFGTTLMAKDLGLAQDSATSTKSPILLGSLAHQIYRMMCAKGYSKKDFSSVFQFLREEETF [HIBADH]”, for which the figures for the melting temperature in the data set with HeLa Kyoto [1] (cell cycle stage: G1/S) and in the data set on HeLa Kyoto [1] (cell cycle stage: mitosis) were 55.4 °C and 56.9 °C, respectively. Besides, the “solubility change mitosis (log2)” value in the data set with HeLa Kyoto [2] was -0.0734. Moreover, in the data set with HeLa Kyoto [3], the “solubility in G1/S (log2)” value was found to be 0.469. The thermal stability score with HeLa Kyoto [4] (setting [5]) is 0.844; with HeLa Kyoto [4] (cell cycle stage: mitosis) it was -0.199.

On to “MAASPGPAGVGGAGAVYGSGSSGFALDSGLEIKTRSVEQTLLPLVSQITTLINHKDNTKKSDKTLQAIQRVGQAVNLAVGRFVKVGEAIANENWDLKEEINIACIEAKQAGETIAALTDITNLNHLESDGQITIFTDKTGVIKAARLLLSSVTKVLLLADRVVIKQIITSRNKVLATMERLEKVNSFQEFVQIFSQFGNEMVEFAHLSGDRQNDLKDEKKKAKMAAARAVLEKCTMMLLTASKTCLRHPNCESAHKNKEGVFDRMKVALDKVIEIVTDCKPNGETDISSISIFTGIKEFKMNIEALRENLYFQSKENLSVTLEVILERMEDFTDSAYTSHEHRERILELSTQARMELQQLISVWIQAQSKKTKSIAEELELSILKISHSLNELKKELHSTATQLAADLLKYHADHVVLKALKLTGVEGNLEALAEYACKLSEQKEQLVETCRLLRHISGTEPLEITCIHAEETFQVTGQQIISAAETLTLHPSSKIAKENLDVFCEAWESQISDMSTLLREINDVFEGRRGEKYGYLSLPKPMKNNANLKSLKPDKPDSEEQAKIAKLGLKLGLLTSDADCEIEKWEDQENEIVQYGRNMSSMAYSLYLFTRGEGPLKTSQDLIHQLEVFAAEGLKLTSSVQAFSKQLKDDDKLMLLLEINKLIPLCHQLQTVTKTSLQNKVFLKVDKCITKTRSMMALLVQLLSLCYKLLKKLQMENNGWVSVTNKDTMDSKT [CTNNAL1]”, for which the melting temperature stood at 47.7 °C in the data set with HeLa Kyoto [1] (cell cycle stage: G1/S) and 48.9 °C in the data set on HeLa Kyoto [1] (cell cycle stage: mitosis). Also, the “solubility change mitosis (log2)” value in the data set with HeLa Kyoto [2] is -0.111. Also, the “solubility in G1/S (log2)” value in the data set on HeLa Kyoto [3] was found to be 0.208. In addition, the thermal stability score was 0.258 in the data set with HeLa Kyoto [4] (setting [5]) and 1.63 in the data set with HeLa Kyoto [4] (cell cycle stage: mitosis).

For “MAASSISSPWGKHVFKAILMVLVALILLHSALAQSRRDFAPPGQQKREAPVDVLTQIGRSVRGTLDAWIGPETMHLVSESSSQVLWAISSAISVAFFALSGIAAQLLNALGLAGDYLAQGLKLSPGQVQTFLLWGAGALVVYWLLSLLLGLVLALLGRILWGLKLVIFLAGFVALMRSVPDPSTRALLLLALLILYALLSRLTGSRASGAQLEAKVRGLERQVEELRWRQRRAAKGARSVEEE [TMEM109]”, the values for the melting temperature in the data set on HeLa Kyoto [1] (cell cycle stage: G1/S) and in the data set with HeLa Kyoto [1] (cell cycle stage: mitosis) were 54.6 °C and 53.8 °C, respectively. For the same sequence, in the data set on HeLa Kyoto [2], the “solubility change mitosis (log2)” value is -0.14. Further, the “solubility in G1/S (log2)” value with HeLa Kyoto [3] was -0.0444. For the same sequence, the thermal stability score in the data set on HeLa Kyoto [4] (setting [5]) was -3.9; in the data set with HeLa Kyoto [4] (cell cycle stage: mitosis) it was -4.03.
